{
  "source": "the nanobody polyreactivity screen of Harvey et al. (2022)",
  "data": [
    {"assay": "yeast display, Sf9 membrane polyspecificity reagent, FACS + sequencing; frameworks hold sequencing errors", "procedure,_shortened": "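Nanobodies came from a synthetic yeast display library in Saccharomyces cerevisiae BJ5465, induced with galactose for 36–48 hours and stained for 1 hour at 4 °C with 10% biotinylated, detergent-solubilized Sf9 membrane reagent. Cells were enriched on streptavidin microbeads and then FACS-sorted, with low and high (top ~1%) gates set on anti-HA fluorescence for expression and streptavidin fluorescence for reagent binding. Each polyreactivity label reflects the gate a clone came from. Genes were amplified by colony PCR, sequenced by MiSeq 2 × 250 and filtered by CDR length.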", "values": [
      {"sequence": "QVQLVESGGGLVQAGGSLRLSCAASGSIFTVYAMGWYRQAPGKERELVAVINYRGGNTYYADSVKGRFTISRDNAKNTVYLQMNSLKPEDTAVYYCATEVSWHWYQLSVPRMDYWGQGTQVTVSS", "polyreactivity (PSR sort gate)": "low polyreactivity"},
      {"sequence": "QVQLVESGGGLVQAGGSLRLSCAASGSIFTVYGMGWYRQAPGKERELVAAITCTSGGTYYADSVKGRFTISRDNAKNTVYLQMNSLKPEDTAVYYCNADGGSGAYLDLTITDYDYWGQGTQVTVSS", "polyreactivity (PSR sort gate)": "low polyreactivity"},
      {"sequence": "QVQLVESGGGLVQAGGSLRLSCAASGSIFTWNAMGWYRQAPGKERELVAAISWIGDSTYYADSVKGRFTISRDNAKNTVYLQMNSLKPEDTAVYYCAAEYAQGSRELESWGQGTQVTVSS", "polyreactivity (PSR sort gate)": "low polyreactivity"},
      {"sequence": "QVQLVESGGGLVQAGGSLRLSCAASGSIFTWNGMGWYRQAPGKERELVAAISNGASTNYADSVKGRFTISRDNAKNTVYLQMNSLYPEDTAVYYCAAKSTGRYDYWGQGTQVTVSS", "polyreactivity (PSR sort gate)": "low polyreactivity"},
      {"sequence": "QVQLVESGGGLVQAGGSLRLSCAASGSIFTWNVMGWYRQAPGKERELVAAISSGGSTNYADSVKGRFTISRDNAKNTVYLQMNSLKPEDTAVYYCATYFRVWYRSYDYWGQGTQVTVSS", "polyreactivity (PSR sort gate)": "high polyreactivity"},
      {"sequence": "QVQLVESGGGLVQAGGSLRLSCAASGSIFTWYAMGWYRQAPGKERELVAAITRGGSTYADSVKGRFTISRDNAKNTVYLQMNSLKPEDTAVYYCNAVYGVYDFNYWGQGTQVTVSS", "polyreactivity (PSR sort gate)": "low polyreactivity"},
      {"sequence": "QVQLVESGGGLVQAGGSLRLSCAASGSIFTYNTMGWYRQAPGKERELVAAISGRGGRTYYADSVKGRFTISRDNAKKTVYLQMNSLKPEDTAVYYCNARKYSQKIYGNYNYWGQGTQVTVSS", "polyreactivity (PSR sort gate)": "high polyreactivity"},
      {"sequence": "QVQLVESGGGLVQAGGSLRLSCAASGSIFTYYAMGWYRPEPGKERELVAAISRRGTRTYYADSVKGRFTISRDNAKNTVYLQMNSLKPEDTAVYYCAAEYTETGTAKMEYWGQGTQVTVSS", "polyreactivity (PSR sort gate)": "high polyreactivity"},
      {"sequence": "QVQLVESGGGLVQAGGSLRLSCAASGSIFTYYAMGWYRQAPGKERELVAAIDFSGASTSYADSVKGRFTISRDNAKNTVYLQMNSLKPEDTAVYYCAAVLYWYPPYYYWGQGTQVTVSS", "polyreactivity (PSR sort gate)": "low polyreactivity"},
      {"sequence": "QVQLVESGGGLVQAGGSLRLSCAASGSIFTYYAMGWYRQAPGKERELVAAINWSGGSTYYADSVKGRFTISRDNAKNTVYLQMNSLKPEDTAVYYCATDYYARRHSPRYDYWGQGTQVTVSS", "polyreactivity (PSR sort gate)": "low polyreactivity"},
      {"sequence": "QVQLVESGGGLVQAGGSLRLSCAASGSIFTYYAMGWYRQAPGKERELVAAISYSGGTTYYADSVKGRFTISRDNAKNTVYLQMYSLKPEDTAVYYCNVDADYESEWLSVGYDYWGQGTQVTVSS", "polyreactivity (PSR sort gate)": "low polyreactivity"},
      {"sequence": "QVQLVESGGGLVQAGGSLRLSCAASGSIFTYYAMGWYRQAPGKERELVASISWGGGSTYYADSVKGRFTISRDNAKNSVYLQMNSLKPVDTAVYYCATDVYVDYFVGGEYWGQGTQVTVSS", "polyreactivity (PSR sort gate)": "low polyreactivity"},
      {"sequence": "QVQLVESGGGLVQAGGSLRLSCAASGSIFTYYVMGWYRQAPGKERELVATITGSSGSTYYADSVKGRFTISRDNAKNTVYLQMNSLKPEDTAVYYCNRTYYHYLYRGYGYWGQGTQVTVSS", "polyreactivity (PSR sort gate)": "low polyreactivity"},
      {"sequence": "QVQLVESGGGLVQAGGSLRLSCAASGSIFVAYDMGCYRQAPGKESALVAAIDSVGRTNYADSVKGRFTISRDNAKNTVYLQMNSLQPEDTAVYYCNADQYYSFYDPDDYWGQGTQVTVSS", "polyreactivity (PSR sort gate)": "low polyreactivity"},
      {"sequence": "QVQLVESGGGLVQAGGSLRLSCAASGSIFVDYAMGWYRQAPGKERELVAAITSGGRTNYADSVKGRFTISRDNAKNTVYLQMKSLKPEDTAVYYCNKTRYTNYYTTTFDYWGQGTQVTVSS", "polyreactivity (PSR sort gate)": "low polyreactivity"},
      {"sequence": "QVQLVESGGGLVQAGGSLRLSCAASGSIFVFYAMGWYRQAPGKERELVASITRSGVSTYYADSVKGRFTISRDNAKNTVYLQMNSLKPEDTAVYYCNVYKGNVVEHDYWGQGTQVTVSS", "polyreactivity (PSR sort gate)": "high polyreactivity"},
      {"sequence": "QVQLVESGGGLVQAGGSLRLSCAASGSIFVGNAMGWYRQAPGKERELFAAISSSGGSTYYADSVKGRFTISRDKAKNTFYLQMNILKPEDTAVYYCASDTYSTSGFYYWGQGTQVTVSS", "polyreactivity (PSR sort gate)": "low polyreactivity"},
      {"sequence": "QVQLVESGGGLVQAGGSLRLSCAASGSIFVGNAMGWYRQAPGKERELVAAISRGGGSTYYADSVKGRFTISRDNAKNTVYLQMNSLKPEDTAVYYCAAVKYYYGSAYDYWGQGTQVTVSS", "polyreactivity (PSR sort gate)": "high polyreactivity"},
      {"sequence": "QVQLVESGGGLVQAGGSLRLSCAASGSIFVGNAMGWYRQAPGKERELVAAISWGGARTYYADSVKGRFTISRDNAKNTVYLQMNSLKQEDTAVYYCAAGSSSRSTTHYYYWGQGTQVTVSS", "polyreactivity (PSR sort gate)": "high polyreactivity"},
      {"sequence": "QVQLVESGGGLVQAGGSLRLSCAASGSIFVGNAMGWYRQAPGKERELVATISWSGGSTYYADSVKGRFTISRDNAKNTVYLQMNSLKPEDTAVYYCAKTPYRRYRYGGYTYRTYDYWGQGTQVTVSS", "polyreactivity (PSR sort gate)": "low polyreactivity"},
      {"sequence": "QVQLVESGGGLVQAGGSLRLSCAASGSIFVGYAMGWYRQAPGKERELVAAISASGSSTYYADSVKGRFTISRDNAKNTVYLQMNSLKPEDTAVYYCATKRVASSWTYVYWGQGSQVTVSS", "polyreactivity (PSR sort gate)": "high polyreactivity"},
      {"sequence": "QVQLVESGGGLVQAGGSLRLSCAASGSIFVGYAMGWYRQAPGKERELVARISSDGDTYYADSVKGRFTISRDNAKNTVYLQMNSLKPEDTAVYYCNADLYGGGDKSVISGLNGEYEYWGQGTQVTVSS", "polyreactivity (PSR sort gate)": "low polyreactivity"},
      {"sequence": "QVQLVESGGGLVQAGGSLRLSCAASGSIFVGYAMGWYRQAPGKETELVAAISTRGGSTYYAETVKGRFTISRDNAKNTVYLQMNILKPEDNAVYYCAADYLDSTYGYVYGWDDYWGKGTQVTVSS", "polyreactivity (PSR sort gate)": "low polyreactivity"},
      {"sequence": "QVQLVESGGGLVQAGGSLRLSCAASGSIFVIYAMGWYRPAPGKERELVAAITGRGGRTYYADSVKGRFTISRDNAKNTVYLQMISLKPEDNAVYYCAADSVYTLGLKYDYWGHGTQVTVSS", "polyreactivity (PSR sort gate)": "high polyreactivity"},
      {"sequence": "QVQLVESGGGLVQAGGSLRLSCAASGSIFVKNAMGWYIHAPGKERELVATISRRGGSTYYADSVKGRFTISRDIAKNTVYLQMNSMKPEDTAVYYCAADRSNRPYYRQGYDYWGQGTQVTVSS", "polyreactivity (PSR sort gate)": "high polyreactivity"},
      {"sequence": "QVQLVESGGGLVQAGGSLRLSCAASGSIFVKNAMGWYRQAPGKERELVAVITIRTATPYYADSVKGRFTISRDNAKNSVYLQMNSLKPEDTAVYYCAAAKRQRGYLQREGNYWGQGTQVTVSS", "polyreactivity (PSR sort gate)": "low polyreactivity"},
      {"sequence": "QVQLVESGGGLVQAGGSLRLSCAASGSIFVKYAMGWYRQAPGTERELVAAISWSGDSTYYADSVKGRITISRDNAKNTVYLQMNSLIPEDTAVYFCAAYSGYGGVSMYYWGQGTQVTVSS", "polyreactivity (PSR sort gate)": "low polyreactivity"},
      {"sequence": "QVQLVESGGGLVQAGGSLRLSCAASGSIFVLNAMGLYRQAPGKERELVAGISSSGGSTYYADSVKGRFTISRDNAKNTVYLQMNSLKPEDTAVYYFAKDAGLYEGDYWGQGTQVTVSS", "polyreactivity (PSR sort gate)": "low polyreactivity"},
      {"sequence": "QVQLVESGGGLVQAGGSLRLSCAASGSIFVLNAMGWYRQAPGKERELGAAITNVGSTYYADSVKGRFTISRDNAKNTVYLQMNSLKPEDTAVYYCNAVLAPGGYDYWGQGTQVTVSS", "polyreactivity (PSR sort gate)": "low polyreactivity"},
      {"sequence": "QVQLVESGGGLVQAGGSLRLSCAASGSIFVLYAMGWYRQAPGKERELVAAINYDGASTYYADSVKGRFTISRDNAKNTVYLQMNSLKREDTAVYYCAKRFGPAYFRLYDYWGQGTQVTVSS", "polyreactivity (PSR sort gate)": "low polyreactivity"},
      {"sequence": "QVQLVESGGGLVQAGGSLRLSCAASGSIFVNNAMGLYRQAPGKERELVAAISSRSSRTFYADSVKGRFTISRDYAKNTVYLQMNSLKPEDTAVYYCAAELYGLKYGYYLSYDYWGQGTQVTVSS", "polyreactivity (PSR sort gate)": "high polyreactivity"},
      {"sequence": "QVQLVESGGGLVQAGGSLRLSCAASGSIFVNYAMGWFRQAPGKERELVAAITRSGGRTYYADSVKGRFTISRDNAKNTVYLQMNSLKPEDTAVYYCAARLGYAGNRDGSWGQGTQVTVSS", "polyreactivity (PSR sort gate)": "high polyreactivity"},
      {"sequence": "QVQLVESGGGLVQAGGSLRLSCAASGSIFVNYAMGWYRQAPGKERELVAAISRSGGRTYYADSVKGRFTISRDNAKNTVYLQMNSLKPEDTAVYDCNVYPVLRTIEGDYWGQGTQVTVSS", "polyreactivity (PSR sort gate)": "high polyreactivity"},
      {"sequence": "QVQLVESGGGLVQAGGSLRLSCAASGSIFVPNAMGWSRQALGKERELVAAITYSGVDTYYADSVKGRFTISRDNAKNTVYLQMNSLKPEDTAVYYCAADNGRVGYDYWGQGTQVTVSS", "polyreactivity (PSR sort gate)": "low polyreactivity"},
      {"sequence": "QVQLVESGGGLVQAGGSLRLSCAASGSIFVPNTMGWYRQAPGKERELVAVISRSGGSTNYADSVKGRFTISRDNAKNTVYLQMNSLKPEDTAVYYCNADDGYSVWGYDYWGQGTQVTVSS", "polyreactivity (PSR sort gate)": "low polyreactivity"},
      {"sequence": "QVQLVESGGGLVQAGGSLRLSCAASGSIFVPYAMGWYRQAPGKEREFVAVISLRGSRTYYADSVKGRFTISRDNAKNTVYLQMNSLKPEDTAVYYCATTGYRLRQATRYDYWGQGTQVTVSS", "polyreactivity (PSR sort gate)": "high polyreactivity"},
      {"sequence": "QVQLVESGGGLVQAGGSLRLSCAASGSIFVPYAMGWYRQAPGKERELVAAISSSTASTYYADSVKGRFTISRDNAKNTVYLQMNRLKPEETAVYYFNAEQWDYGVRVAHYDYWGQGTQVTVSS", "polyreactivity (PSR sort gate)": "low polyreactivity"},
      {"sequence": "QVQLVESGGGLVQAGGSLRLSCAASGSIFVPYAMGWYRQAPGKERELVAGINWSSGRTYYADSVKGRFTISRDNAKNTVYLQMNSLKPEDTAVYYCAAEKYTTYSFYHVAYDYWGQGTQVTVSS", "polyreactivity (PSR sort gate)": "high polyreactivity"},
      {"sequence": "QVQLVESGGGLVQAGGSLRLSCAASGSIFVPYAMGWYRQAPGKERELVATITISGGSTYYADSVKGRFTISRDNAKNTVYLQMNSLKPEDTAVYYCAAETTASYYKRTDDYDYWGQGTQVTVSS", "polyreactivity (PSR sort gate)": "low polyreactivity"},
      {"sequence": "QVQLVESGGGLVQAGGSLRLSCAASGSIFVRNAMGWYRQAPGKERELVAADSVKGRFTISRDNAKNTVYLQMNSLKPEDTAVYYCNKDYIIRRGPIVYYGFDYWGQGTQVTVSS", "polyreactivity (PSR sort gate)": "low polyreactivity"},
      {"sequence": "QVQLVESGGGLVQAGGSLRLSCAASGSIFVRNAMGWYRQAPGKERELVATITRRGGRTYYADSVKGRFTISRDNAKNTVYLQMNSLKPEDTAVYYCAARVRTATRRFTSYYWGQGTQVTVSS", "polyreactivity (PSR sort gate)": "high polyreactivity"},
      {"sequence": "QVQLVESGGGLVQAGGSLRLSCAASGSIFVRYAMGGYRQAPGKERELVASIRSRGDSTYYADSVKGRFTISRDNAKNTVYLQMISLKPEDTAVYFFADRRYPPRMDYWGQGTQVTVSS", "polyreactivity (PSR sort gate)": "high polyreactivity"},
      {"sequence": "QVQLVESGGGLVQAGGSLRLSCAASGSIFVRYAMGWYRQAPGKERELVAAISSGGRTYYADSVKGRFTISRDNAKNTVYLQMNSLKPEDTAVYYCNAVKRVPSLGPYDYWGQGTQVTVSS", "polyreactivity (PSR sort gate)": "high polyreactivity"}
    ]}
  ]
}
